Assay results published in the DeepSol protein solubility set.

assay: soluble on expression in E. coli; label from the status in PepcDB or PDB records

Sequence | soluble on expression in E. coli
SARRISSQGKVTISVDEYSSNPTQAFTHYNINQSRFQPPHVHMVEPLPYDAPKSVGHTRFVCVSDTHSRTDGIQMPFGDVLLHTGDFTELGLPSEVKKFNDWLGGLPYEYKVVIAGNHELTFDKDFMAELIKQDYYRFPSVSKLRSEDFDDVQSLLTNCVYLQDSEVTIKGFRIYGAPWTLWFNGWGFNLPRGQSLLDKWNQIPEDVDILMTHGPPLGFRDWLPKELQRVGCVELLNTVQKRVRPKLHAYGGIHEGYGIMTDGYTTFINSSTCTVSFQPTNPPIIFDLPNPGNS | soluble
MKPAKVSLLRRLLHSLKHVDCNIAKRFPSTIKIVKLLMIFMVFTPISSIYAEDVYQNFEELKNNEDPSDYGVVTKETGSPVLVLAIHGGGIEGGTSEVARELSKEYSMYLFEGLKSAGNSVLHITSTHFDEPRALKMTGNHEYVISLHGYAEEDQQIEVGGTDRVRAADLVEKLQHAGFPAVLLNMDHPHAGVSPNNIANKSKTGLSIQIEMSTGFRKSLFGIFSLKSRAVTQNERFYEFTEVMFRFLKNSYLEHHHHHH | not soluble
MEPDIEPWDRFRDWLHCICVVTFDLELGQALEVIYPGDAILSNTEKINICYLAFPDSNSSNARDTNFHFRIRRAISDVRDCQKSFVDKSPTSLPFDTHYLYGFVHFRQCKDPTIHRGYYQKSIVLMSVLPLFSLFYSVTARIAEHFFESGEAAIEAACHHIDTWQQPHAGRTIELPLLGTLISCRLPAACDLPYEFRLDGHVELSDDDSQRLVRPDFTTSIVQHVHHLPLLWELVLLGEPLLIVAPTPSITSALVQSIVGLLSPLRIVNDFRPYFTIHDSEFREYSSKSRSPPRVILGVTNPFFIKALDHWPHILKVAEQGAEIGGDDMKKPKKTWSSSRTLDTPAGLYTQYKPFLSKDKSLAKKLLRSGNSLEVQHNILQRHFLELTHSFMIPMERYLSSLMPLKKEMSPFKGIPSTRPFSMDDFLATLETNGGPSLTCGTKGDWQGLYRRFITCSNFGGWLSMRSRDVNAQLKTHYVEALCSADFCSQTLATKHNVEIVDLVLRIRERIIECPPDTEIRRNLVRQVVKILSNVDDDLKQLLMSNCSLREILA | not soluble
MNEALDDIDRILVRELAADGRATLSELATRAGLSVSAVQSRVRRLESRGVVQGYSARINPEAVGHLLSAFVAITPLDPSQPDDAPARLEHIEEVESCYSVAGEESYVLLVRVASARALEDLLQRIRTTANVRTRSTIILNTFYSDRQHIP | soluble
MSEPTYFMPPEWAPHASTWLSWPHKLESWPGKFEPVPAVFAELAYQLSRSETVNINVLDDAMEAQARELLKERDPEGKYAERIVFHRIPTNDAWCRDHGPNYVIRTQDGRRDKVIMNWEYNAWGGKYEPYDDDNAVPERVAKAQGLPMVSTGMVLEGGAIDVNGAGLLLTTTACLLNPNRNPSLGKAEIEAQLRRYLGIEKVLWLGDGIAGDDTDGHVDDMARFVNENTVVIAVEEDPEDENYKPLRENYELLKTMTGLDGKPLNIVKLPMPEPVYYDGERLPASYANFYIANTVVLVPTYRCPRDQQAIDILQQCFPKREVVGIDCSDLIWGLGAIHCVTHEEPAMLEHHHHHH | soluble
MGSDKIHHHHHHMTTNCVIVSQRYPPEKGGNASRIHDTAVNLGDEFNVTVLAPSLCYPPGNFERTWKRKQTERDEGVIVHRLWTWQPQRENPSLLRRLPYYVIFALHAALWLVVNFRQYDVVMTSTPPITTGFPGLVAAAIGNPWVIDVRDLWIENSIALGYIQADSPLVKAGRTFQRLALHSADRITVTTETLRDAVGDTYGSELRDRVRVVPNGVDTDRFSSVSTPENNDSRIVYTGNIGSAQALEPCIRAMQHVSSDNALLQLVGDGDEVSRLKSVTERLGLEDRVEFVGLVDRERIPEILDSATVGLAPIKDSPELDYAIPTKLYEYMACSLPVVVTGRGEIKRFTTDTDVGIHTEPDPESIAVAIETLLENPEKRVAMGQDGHRVVSEEYDRQAIAGQLGEVFRTLTVTERRESCTTPDPDHD | not soluble
MGSDKIHHHHHHMAIKILSVDDEQDLEALLTQYFRRKIRKGEYEFSFAHNGLEALRMMLDHPDFDIILSDINMPEMDGLTLLTKINEMRNPALKCIIVSAYGDMENIRTAMNHGAFDFATKPIDMEDLERTIEKAVEQISFIKEAQKEHHQLEEIQYDLNVAREIQQSILPKQFPPFPQYKQFDLYATMSAAKAVGGDFYDFFLVDDNHLGFTIADVSDKGIPAAIFMAISRTVIRATALRQLSPAVCMKESNDLLCRESVNGMFVTTFYAILNIHTGDVVYCNGGHNRPVWIRKNDKVSLLPMTGGMALGVVPGLAYKEQSLKLEAGDSLFLYTDGISEAMNLRNEQYGDIRLVEACSSVKNQSPKSMIEGISESVQSFVNGATQSDDITMLALTYKG | not soluble
MKQLMIEASTPLCQLQDAGRFGVRHLGVTQGGALDWVAMHWANWLLGNPLGAPVVEVALGGFCVVAEQDCVLALAGADLDACVDDQPLAPWRSFALAKGQRLTLKQPKVGVRAYLAAPGGFLGEDVLGSCATVVREALGGIDGQGAALAKHQALAFTGSNAPLREVPQALCPQFAQKPVLDLVMGAQIGEFSGTSLFEAFNREWTLDSRADRMGIRLLGPQLVYQGAPMISEGIPLGAVQVPPDGQPIVLLNDRQTIGGYPRLGALTPLALAQLAQCMPGTVVRFRAVVQDEAWREQQLYLGRWS | not soluble
MTAFEEFGIIPELSDALSSLNWTLPTAVQSEAIPAILGGADALIAAETGSGKTGAFSLPIAQIVWERRKSAEKSQNSGQKPENSREFQLNREDRDVSLQIDKTGLNCESRVAKEWHGARATAGLYGNGKYYYEVTVTRDGLCRVGWATLSGSLKIGTDFESFGYGGTGKKSFGKKFDDYGTSFTTNDVLGCFLDLDELKIWWSKNGVQFPVAYQIDKKFKTAATCLYPAILCQNSGLGVNFGGSAAFKYPPGTQYVAVAQAEDGNLKWWSAAEQLSIDSSTPLCVILEPTRELVQQTFQNIQTFASVLDSPKIRCVTLAAGENMNQILRTLETGCDIVVGTPSRVFDLIHTGKLATKNLQFVVIDEIDQFLAGKNNCAHQIESIFRVLPLVAQDGTRRQVIACSATLHNFEVCRFADRHMSFPQWIDLKGADCVSADVHHVVCHVDASEDKQWIRQMHQQVHLEDDHVHDGDQIRPGTTDKDTISLGTKILKGIYVVRAIHALQMDKAIVFCRTKQQCDHMEHFLQQNNLSAACLHGDRSAEERQSSLEGFKKGIIRFLVCSDVVARGLDVQGVPFVISVTLPDEKSMYVHRIGRVGRAERMGLSISLVSEYEEKAWYHKCRSRGVNCTNTKDISKGGCTIWLQEKKMLGEIEEHLGATISTVDSDFNVPVDEFDGKVVYGERRTGGANFDTHVLQLASSASQLADLETKMQLEYLNNNRHVFEIHSM | not soluble
MDTIININNNNQKYPQSAEEYHKVLCNYFITLQSAMQSTSRPSSSSPPSLPAVSSELLSSSFPTNAPESSSRDLAPKQNQFTINVVLFDEKKKKNPEENLPANGDQLATLRSLMMQINPSSPPSIPATSPQLPLAESENVPESSSTLKDHKFSLNTMLFNVKKNDAVKISLANQEQWAKFHEIGTEMMVFNSGRRLFPLLAYKVSGLDPHKLYCAGVHMIPDSAYKQEYDHDLQQWVNCLNQKKTIFKPTSEILGRIENGFKLMSLGIDMSDVKIFNIAIRKKTPLQIEKSRKPNLDKTIEVLIQYKYLPVIKIYELSNSGMEKKEIAQATFPETSFVTVSIYRNQKIKEMKTLGNKYCRTDRKQIVMEQRGELEQ | not soluble
MRTVSHPTPLRRAPVQRRSAERLTRILDACADLLDEVGYDALSTRAVALRADVPIGSVYRFFGNKRQMADALAQRNLERYAERVTERLTEAGDGGWRGALDTVLDEYLAMKRTAPGFSLIDFGNQIPVGDRHAVPNHRVAERLTELLSGYLGRRPDDDLRRVFLVAVETADTLVQLAFRVAPDGDEKIIEEARELLRAYLGRVLD | soluble
MGSDKIHHHHHHLNAAAQTTPEIRRPQLGWTMLETPRFLSETALLALAWPMLAKAPQGDGHPVMVLPGFATNDTMTVLLRSFLARLGYQVFPWDLGWNLDQHSAGENGEHLAARIDAIAAETGRKVSLVGWSLGGVIAREAARRDHGGLRQVVTLGSPFTGNPRATSLTSLYELLTGNKASSEKSAARYARGHHPLPVPSTAIFSRTDGITAWENCVSETDDRTENIEVHCSHFGFVANPGVFWAVADRLAQPEGQWRKFDPKGCFAAFYP | not soluble
MYKKRQRGEREREIKVEFAMHISIKTLEGKRIKLEVEDSSNTIDLKIHGEPTRELVVDLSPTPDTGAIMMIFIKTLTGRTNTYEVKGSDTIRELKAKHEEKEGIPVEQQRLIFQGRVLEDSKAISDYNIKHESTLHITLHQCGC | soluble
